± gives the standard deviation of the averaged measurements.
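Further: PSI is a weighted mean of sequencing reads over stability bins, variants kept only with over 10 reads, mCherry proximal and sfGFP distal, peptide attached via GGGS linker.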

The test system of this data set is Saccharomyces cerevisiae. Description: protein stability index of tFT-peptide fusion (C-terminal peptide) (PSI (0-1 scale)); higher = more stable (slower turnover). The note with it: genetic background: wild type; temperature: 30 C.
Turning to RNRLTTMCRHLE, the protein stability index came out at 0.655 ± 0.062.
Next, RNRNDRIKKLKR: 0.667 ± 0.014; RPAAPGSKGDDN: 0.7 ± 0.043; RPAGGPRGGEGV: 0.648 ± 0.058.
Next, RPAMSPPPLCPP: 0.625 ± 0.027.
Consider RPASVHDLSLQC, for which the protein stability index is 0.681 ± 0.033.
For the sequence RPCDLISGFCGL, the protein stability index came to 0.695 ± 0.012.
Next, RPDSPSPLPPPP: 0.637 ± 0.028; RPELRRETARVR: 0.644 ± 0.038; RPEVRTGPASTH: 0.676 ± 0.032.
As for RPFLLWRVVTPL, the protein stability index came out at 0.611 ± 0.016.
As for RPGLCLTFFSAH, the figure is 0.666 ± 0.032; as for RPGSWINEITKE, 0.69944 ± 0.00024.
As for RPKVSRIKENKY, the figure is 0.727 ± 0.02; as for RPLPLRLDGSGS, 0.719 ± 0.047; as for RPLPPPPAPPPL, 0.706 ± 0.029.
In the case of RPLSPPSAPTSF, the protein stability index is 0.679 ± 0.0055.
In turn, RPLTSVTPLPTL yielded a protein stability index of 0.6988 ± 0.0067.
Next, RPLVYIKHLALL: 0.44 ± 0.17; RPNTVHLQALYN: 0.6802 ± 0.0046.
The sequence RPNWSRFTSIYA returned a protein stability index of 0.653 ± 0.016.
The sequence RPPINRLCPWLL yielded a protein stability index of 0.671 ± 0.032.
RPPLIPAALLFL had a protein stability index of 0.589 ± 0.048.
Next, RPPLLPPLDAPS: 0.713 ± 0.027; RPPLPPPPPLPP: 0.578 ± 0.03.
Next, RPPPPRPRSLLS: 0.654 ± 0.097.
As for RPPPRSPPLPRL, the figure is 0.806 ± 0.03; as for RPPPSAIPPPSP, 0.6274 ± 0.0014; as for RPPTASPLVAPA, 0.655 ± 0.0067.
Consider RPRCAPSPPLPP, for which the protein stability index stood at 0.691 ± 0.047.
Next, RPSLEKQETEKT: 0.696 ± 0.056; RPSLSRSSLLSP: 0.701 ± 0.032.
Next, RPTSPCPNHRLE: 0.667 ± 0.097.
As for RQCGKGGKEGAA, the protein stability index was found to be 0.653 ± 0.051.
The sequence RQFVTACPLWRH yielded a protein stability index of 0.676 ± 0.046.
Next, RQQKTNERRPRT: 0.648 ± 0.04; RQWAISRRWVVR: 0.562 ± 0.021.
Turning to RQYCTRDHNIIK, the protein stability index turned out to be 0.732 ± 0.025.
As for RRAGGARGKTSE, the figure is 0.645 ± 0.014; as for RRAGRGGIGKGG, 0.591 ± 0.018; as for RRDLKNVRLPDR, 0.675 ± 0.055.
Next, RRESAGFGLVWG: 0.709 ± 0.017; RRFPYGPFDFSI: 0.6645 ± 0.0049; RRGCTKYGSYII: 0.696 ± 0.082.
Next, RRGCYLFTPRPG: 0.648 ± 0.015; RRGLRVTETPVR: 0.772 ± 0.011; RRGWRRGGLGNG: 0.683 ± 0.052.
In turn, RRHGDVGFGVGW returned a protein stability index of 0.82 ± 0.1.
Next, RRHPRLPSLSGL: 0.651 ± 0.044; RRIVAPYSGEAA: 0.774 ± 0.013; RRKEEEGKEVRK: 0.666 ± 0.01.
As for RRMDGHLRELPA, the figure is 0.685 ± 0.058; as for RRNARRARARWR, 0.637 ± 0.065.
In turn, RRNPTCPSGTQK came in with a protein stability index of 0.7 ± 0.021.
Next, RRPFPSSVVFPH: 0.702 ± 0.023.
Next, RRPRIANIETDY: 0.678 ± 0.0046; RRRGRGAVGATR: 0.716 ± 0.073; RRRLLCVCDLMM: 0.576 ± 0.038.
As for RRSCSMQISSRN, the figure is 0.642 ± 0.045.
Consider RRSLSVYPRFRT, for which the protein stability index was found to be 0.714 ± 0.037.
The sequence RRSRFSGACLLM displayed a protein stability index of 0.773 ± 0.13.
As for RRTRRSTGHATG, the protein stability index came out at 0.665 ± 0.043.
Next, RRTSPNKNLKNQ: 0.618 ± 0.097.
Next, RRVPTDQYRLLE: 0.696 ± 0.027; RRVYGRELHPSQ: 0.731 ± 0.029; RRWATGGVIGGR: 0.677 ± 0.0074.
As for RSALVPPRLPAS, the figure is 0.675 ± 0.075; as for RSCAHATLAYVP, 0.771 ± 0.082; as for RSDCLIDSRMVD, 0.694 ± 0.094.
Consider RSDRDGPPRGDS, for which the protein stability index was determined as 0.719 ± 0.087.
As to RSFPPPPARSLP, the protein stability index came to 0.711 ± 0.039.
As for RSGCGYCLVRLG, the figure is 0.541 ± 0.0007; as for RSGGSSPRRLFT, 0.7 ± 0.0095.
RSHAHTRNGSSA displayed a protein stability index of 0.675 ± 0.022.
Next, RSHLLPPPRHQH: 0.7333 ± 0.00099; RSLGGGVGARFV: 0.695 ± 0.037.
As for RSLSPPPASPIP, the figure is 0.6755 ± 0.0051.
As for RSLYGLMNPPRG, the figure is 0.71 ± 0.011.
For the sequence RSNLGLNLVLAI, the protein stability index worked out at 0.591 ± 0.031.
As for RSNNKFAKPIQY, the figure is 0.663 ± 0.11; as for RSPHLPTARSSQ, 0.723 ± 0.018.
Next, RSPLPHPPPHSY: 0.612 ± 0.054; RSPPLEPTLDPL: 0.785 ± 0.1.
As for RSPTRHAPPRPV, the figure is 0.639 ± 0.095.
In turn, RSRDDAGASLHL displayed a protein stability index of 0.6666 ± 0.0054.
As for RSRKICYREEKR, the figure is 0.644 ± 0.029; as for RSSDRGDVRATC, 0.689 ± 0.062.
Next, RSSGHQIRDKSA: 0.74 ± 0.022; RSSNNQRARPPQ: 0.627 ± 0.028; RSSYTLLLPPLR: 0.624 ± 0.0074.
As for RSTGGHGSQAGR, the figure is 0.711 ± 0.04; as for RSTRDKTRLAKD, 0.743 ± 0.11; as for RSTRLPGFNRRE, 0.662 ± 0.0062.
As for RSTTDVADNSRP, the protein stability index worked out at 0.631 ± 0.032.
Next, RSWVGVEWVGGM: 0.595 ± 0.094; RTDTKPTGEHEA: 0.694 ± 0.045.
As for RTFKYERNLEVY, the figure is 0.596 ± 0.046; as for RTFTLCSPSPCA, 0.645 ± 0.059; as for RTPAPENPPTSP, 0.609 ± 0.06.
RTPYFGPLAQIA: the protein stability index turned out to be 0.622 ± 0.023.
Next, RTQGVWYHGVRR: 0.745 ± 0.071.
In turn, RTQRGRMVGEQG yielded a protein stability index of 0.732 ± 0.11.
As for RTQYEVGVGTGG, the figure is 0.692 ± 0.021.
In turn, RTRAPSKHAPER had a protein stability index of 0.841 ± 0.16.
Next, RTSLRYLKRVER: 0.669 ± 0.076; RTSQLVSRATLD: 0.691 ± 0.019; RTSRKKMLNFKY: 0.66688 ± 0.00034.
Consider RTSYIKNQKKKG, for which the protein stability index was found to be 0.699 ± 0.013.
As for RTTKRNDYLSHI, the figure is 0.699 ± 0.08; as for RVALVCGLGCIF, 0.683 ± 0.029; as for RVEELKFKNLII, 0.6633 ± 0.004.
As for RVFLAVCYGCRV, the figure is 0.5659 ± 0.0034; as for RVGLCGSSLGVI, 0.742 ± 0.078.
As for RVIPRTRISLLS, the figure is 0.575 ± 0.0075.
RVLASVGCYLFW displayed a protein stability index of 0.641 ± 0.015.
As for RVLKIIGFITYA, the figure is 0.56 ± 0.034.

The values are drawn from the supplement of paper PMC10724198.
